Results taken from patent US20150344580A1 (published 2015).

T1: human chemokine receptor CCR7 (UniProt P32248 25-378)
T1 chain: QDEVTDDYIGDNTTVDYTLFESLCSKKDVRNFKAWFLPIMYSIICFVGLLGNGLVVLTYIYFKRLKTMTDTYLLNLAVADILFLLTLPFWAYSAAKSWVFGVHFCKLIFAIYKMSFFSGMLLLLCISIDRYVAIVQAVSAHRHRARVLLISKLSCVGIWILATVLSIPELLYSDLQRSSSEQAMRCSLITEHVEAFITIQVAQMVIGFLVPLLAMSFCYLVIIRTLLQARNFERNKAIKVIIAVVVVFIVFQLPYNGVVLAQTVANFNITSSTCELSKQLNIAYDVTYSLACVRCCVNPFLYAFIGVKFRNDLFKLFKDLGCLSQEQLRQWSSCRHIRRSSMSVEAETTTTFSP


Experiments:
[1] = target: T1, human chemokine receptor CCR7; test: FACS cell binding; after temperature stress
[2] = target: T1, human chemokine receptor CCR7; test: FACS cell binding; after pH stress (3hr)
[3] = target: T1, human chemokine receptor CCR7; test: FACS cell binding; after pH stress (2hr)
[4] = target: T1, human chemokine receptor CCR7; test: FACS cell binding; after pH stress (3hr)
[5] = target: T1, human chemokine receptor CCR7; test: FACS cell binding; after pH stress (2hr)

Row | EC50 [1] [nM] | EC50 [2] [nM] | EC50 [3] [nM] | EC50 [4] [nM] | EC50 [5] [nM] | Binder
1 | ~6 | ~9.1 | ~9.4 |  |  | MSM R707 in IgG4 format (antibody, V domains shown) VH: EVQLLESGGGLVQPGGSLRLSCAASGFTFSNYAIHWVRQAPGKGLEWVSAITPRGGYTYYADSVKGRFTISRDNSKNTLYLQMNSLRAEDTAVYYCARGLTMMYTPGMDYWGQGTLVTVSS VL: not shown
2 |  |  |  | ~7.6 | ~4.6 | MSM R735 in IgG4 format (antibody, V domains shown) VH: EVQLLESGGGLVQPGGSLRLSCAASGFTFSNYNMHWVRQAPGKGLEWVSGIGPRRGRTYYADSVKGRFTISRDNSKNTLYLQMNSLRAEDTAVYYCARSYAYQYRGLDYWGQGTLVTVSS VL: EIVLTQSPGTLSLSPGERATLSCRASQSVSSSYLAWYQQKPGQAPRLLIYGASSRATGIPDRFSGSGSGTDFTLTISRLEPEDFAVYYCQQGSPVTFGQGTKVEIKR
